The record followed here is US20150056199A1.

Common to all, as to experiment: cell-based or functional assay
Test [1] concerns the target murine GDF15 (mGDF15), mature, generated in-house in CHO cells (mouse) (UniProt Q9Z0J7).
Test [2] addresses human TGFβ1 (PeproTech) (human) (UniProt P01137).
Test [3] addresses human TGFβ3 (PeproTech) (human) (UniProt P10600).
Test [4] has as its target human GDF15 (hGDF15), mature, generated in-house in CHO cells (human) (UniProt Q99988).
Test [5] has as its target human TGFβ1 (PeproTech) (human) (UniProt P01137). The source holds these as a separate data set.
For test [6], the target named is human TGFβ3 (PeproTech) (human) (UniProt P10600). This is another data set of the same source.
human TGFβ3 (PeproTech) (human), sequence (P10600 301-412 limits assumed): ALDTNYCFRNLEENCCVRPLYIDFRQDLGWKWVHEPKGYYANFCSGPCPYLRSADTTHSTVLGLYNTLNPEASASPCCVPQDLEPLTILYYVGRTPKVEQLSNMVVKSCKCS

Read-outs that look alike come from different tables or passages of the source.

hTβRIIshort(23-153)-hG2Fc (Fc fusion), sequence (chain): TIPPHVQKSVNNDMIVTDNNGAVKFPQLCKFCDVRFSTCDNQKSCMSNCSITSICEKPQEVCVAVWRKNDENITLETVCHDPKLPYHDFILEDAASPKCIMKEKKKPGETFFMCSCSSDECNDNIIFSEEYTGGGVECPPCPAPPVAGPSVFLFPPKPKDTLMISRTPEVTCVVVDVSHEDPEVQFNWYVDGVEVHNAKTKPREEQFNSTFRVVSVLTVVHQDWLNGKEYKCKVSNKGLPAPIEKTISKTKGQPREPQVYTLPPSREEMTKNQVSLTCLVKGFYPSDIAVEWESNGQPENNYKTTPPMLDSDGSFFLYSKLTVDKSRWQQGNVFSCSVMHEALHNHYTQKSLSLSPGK
hTβRIIshort(29-159)-hG2Fc (Fc fusion), sequence (chain): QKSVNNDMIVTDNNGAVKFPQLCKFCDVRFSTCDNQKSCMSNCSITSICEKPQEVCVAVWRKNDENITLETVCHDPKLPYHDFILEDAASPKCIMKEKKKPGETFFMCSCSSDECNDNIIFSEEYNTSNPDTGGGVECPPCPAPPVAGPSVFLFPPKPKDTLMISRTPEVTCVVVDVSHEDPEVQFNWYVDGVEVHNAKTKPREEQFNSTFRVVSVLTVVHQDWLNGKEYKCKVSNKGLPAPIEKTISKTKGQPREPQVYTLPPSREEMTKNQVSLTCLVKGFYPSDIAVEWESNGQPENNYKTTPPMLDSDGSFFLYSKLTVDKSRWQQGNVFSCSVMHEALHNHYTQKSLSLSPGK
hTβRIIshort(23-159)-hG2Fc (Fc fusion), sequence (chain): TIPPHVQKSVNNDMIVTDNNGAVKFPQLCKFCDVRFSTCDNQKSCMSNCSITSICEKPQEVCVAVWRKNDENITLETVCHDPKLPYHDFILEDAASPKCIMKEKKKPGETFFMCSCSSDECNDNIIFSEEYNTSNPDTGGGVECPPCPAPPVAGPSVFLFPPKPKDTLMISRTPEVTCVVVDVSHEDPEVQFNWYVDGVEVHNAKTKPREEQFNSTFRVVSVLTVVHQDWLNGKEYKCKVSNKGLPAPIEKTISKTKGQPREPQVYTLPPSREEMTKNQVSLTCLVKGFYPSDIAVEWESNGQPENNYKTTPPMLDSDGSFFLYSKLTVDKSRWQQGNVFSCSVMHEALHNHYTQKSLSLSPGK
human TGFβ1 (PeproTech) (human), sequence (P01137 279-390 limits assumed): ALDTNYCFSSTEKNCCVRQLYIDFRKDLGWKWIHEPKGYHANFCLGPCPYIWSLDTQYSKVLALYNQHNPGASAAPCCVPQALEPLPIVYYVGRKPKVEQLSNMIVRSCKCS
human GDF15 (hGDF15), mature, generated in-house in CHO cells (human), sequence (Q99988 197-308): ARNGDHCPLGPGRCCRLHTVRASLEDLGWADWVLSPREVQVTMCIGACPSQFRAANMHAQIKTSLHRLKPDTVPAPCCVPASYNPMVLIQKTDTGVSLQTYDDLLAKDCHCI
hTβRIIshort(35-159)-hG2Fc (Fc fusion), sequence (chain): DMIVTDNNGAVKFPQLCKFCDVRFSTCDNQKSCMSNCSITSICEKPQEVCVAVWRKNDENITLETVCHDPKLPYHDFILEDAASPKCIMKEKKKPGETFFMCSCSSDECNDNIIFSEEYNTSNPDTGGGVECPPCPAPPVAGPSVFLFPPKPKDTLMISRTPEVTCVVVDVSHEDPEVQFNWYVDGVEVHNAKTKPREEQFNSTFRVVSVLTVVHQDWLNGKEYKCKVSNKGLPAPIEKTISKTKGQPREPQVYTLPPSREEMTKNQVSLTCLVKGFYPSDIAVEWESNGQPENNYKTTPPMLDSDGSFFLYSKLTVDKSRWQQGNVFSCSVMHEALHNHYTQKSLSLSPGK
murine GDF15 (mGDF15), mature, generated in-house in CHO cells (mouse), sequence (Q9Z0J7 192-303): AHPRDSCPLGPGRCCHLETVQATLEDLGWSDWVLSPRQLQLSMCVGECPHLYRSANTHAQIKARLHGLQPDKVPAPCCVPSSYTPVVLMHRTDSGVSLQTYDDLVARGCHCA

In test [1], “hTβRIIshort(23-159/D110K)-hG2Fc (Fc fusion)” showed an IC50 (nM), A549 CAGA-12 reporter gene assay, mGDF15 (35 ng/ml) of 0.7 nM. Moreover, the IC50 (nM), A549 CAGA-12 reporter gene assay, hTGFβ1 (640 pg/ml) in test [2] is greater than 73.6 nM.
Consider hTβRIIshort(23-159)-hG2Fc (Fc fusion), for which the IC50 (nM), A549 CAGA-12 reporter gene assay, hTGFβ3 (270 pg/ml) is 0.37 nM in test [3] and 0.14 nM in test [6]. The IC50 (nM), A549 CAGA-12 reporter gene assay, hGDF15 (70 ng/ml) in test [4] was 0.14 nM. In addition, the IC50 (nM), A549 CAGA-12 reporter gene assay, hTGFβ1 (640 pg/ml) was determined as 0.52 nM in test [5] and 1.73 nM in test [2]. The IC50 (nM), A549 CAGA-12 reporter gene assay, mGDF15 (35 ng/ml) in test [1] came out at 0.12 nM.
Take hTβRIIshort(35-159)-hG2Fc (Fc fusion): in test [3], the IC50 (nM), A549 CAGA-12 reporter gene assay, hTGFβ3 (270 pg/ml) was greater than 7.5 nM. Further, the IC50 (nM), A549 CAGA-12 reporter gene assay, hGDF15 (70 or 112 ng/ml) in test [4] was found to be 0.92 nM. Also, in test [5], the IC50 (nM), A549 CAGA-12 reporter gene assay, hTGFβ1 (640 pg/ml) worked out at 2.51 nM.
With “hTβRIIshort(23-153/N70D)-hG2Fc (Fc fusion)”, the IC50 (nM), A549 CAGA-12 reporter gene assay, hGDF15 (70 ng/ml) in test [4] stood at 2.42 nM. Moreover, in test [5], the IC50 (nM), A549 CAGA-12 reporter gene assay, hTGFβ1 (640 pg/ml) worked out at 17.7 nM.
As to hTβRIIshort(29-159)-hG2Fc (Fc fusion), the IC50 (nM), A549 CAGA-12 reporter gene assay, hTGFβ3 (270 pg/ml) in test [3] was greater than 7.5 nM. The substance further had an IC50 (nM), A549 CAGA-12 reporter gene assay, hGDF15 (70 or 112 ng/ml) in test [4] of 0.4 nM. The same substance yielded an IC50 (nM), A549 CAGA-12 reporter gene assay, hTGFβ1 (640 pg/ml) in test [5] of 2.05 nM.
In the case of hTβRIIshort(23-153)-hG2Fc (Fc fusion), the IC50 (nM), A549 CAGA-12 reporter gene assay, hTGFβ3 (270 pg/ml) in test [3] was determined as 0.14 nM. Further, the IC50 (nM), A549 CAGA-12 reporter gene assay, hGDF15 (70 ng/ml) in test [4] was found to be 0.18 nM. The substance also had an IC50 (nM), A549 CAGA-12 reporter gene assay, hTGFβ1 (640 pg/ml) in test [5] of 2.62 nM.
